Assay results: the supplement of paper PMC5998384

Assays:
HeLa Kyoto [1] = experiment: thermal stability score vs G1/S (z-score of summed log2 fold changes over temperatures); higher = more thermally stable than in G1/S
HeLa Kyoto [2] = experiment: melting temperature (median over replicates), in situ; higher = more thermally stable
HeLa Kyoto [3] = experiment: solubility change mitosis vs G1/S (difference of NP-40 vs SDS log2 ratios) (log2 ratio difference); higher = more soluble in mitosis
HeLa Kyoto [4] = experiment: solubility in G1/S (NP-40 vs SDS abundance) (log2 ratio); higher = more soluble; settings: cell cycle stage: G1/S
[5] = cell cycle stage: early G1 (4.5 h after nocodazole release)
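Wherever melting temperature (median over replicates), in situ is given: HeLa Kyoto cells synchronized by double thymidine or nocodazole block, proteins quantified by TMT10plex mass spectrometry, three independent biological replicates.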
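Wherever solubility change mitosis vs G1/S (difference of NP-40 vs SDS log2 ratios) is given: synchronized HeLa Kyoto cells (double thymidine block for G1/S, nocodazole release for mitosis), protein amounts in NP-40 versus SDS lysates quantified by mass spectrometry, three biological replicates.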
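Wherever solubility in G1/S (NP-40 vs SDS abundance) is given: HeLa Kyoto cells arrested at G1/S by double thymidine block, proteins quantified by TMT10plex mass spectrometry in mild NP-40 versus SDS extracts, three biological replicates.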
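Wherever thermal stability score vs G1/S (z-score of summed log2 fold changes over temperatures) is given: synchronized HeLa Kyoto cells, proteins quantified by TMT10plex mass spectrometry, three biological replicates, mitosis taken 0.5 h after nocodazole release, G1/S directly after double thymidine block.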

Row | Sequence | thermal stability score (HeLa Kyoto [1]; [5]) | thermal stability score (HeLa Kyoto [1]; cell cycle stage: mitosis) | melting temperature (HeLa Kyoto [2]; cell cycle stage: G1/S) [°C] | melting temperature (HeLa Kyoto [2]; cell cycle stage: mitosis) [°C] | solubility change mitosis (log2) (HeLa Kyoto [3]) | solubility in G1/S (log2) (HeLa Kyoto [4])
1 | MAESDWDTVTVLRKKGPTAAQAKSKQAILAAQRRGEDVETSKKWAAGQNKQHSITKNTAKLDRETEELHHDRVTLEVGKVIQQGRQSKGLTQKDLATKINEKPQVIADYESGRAIPNNQVLGKIERAIGLKLRGKDIGKPIEKGPRAK [EDF1] | -4.76 | -6.66 | 55.2 | 52.7 | 0.78 | 0.119
2 | MAESIIIRVQSPDGVKRITATKRETAATFLKKVAKEFGFQNNGFSVYINRNKTGEITASSNKSLNLLKIKHGDLLFLFPSSLAGPSSEMETSVPPGFKVFGAPNVVEDEIDQYLSKQDGKIYRSRDPQLCRHGPLGKCVHCVPLEPFDEDYLNHLEPPVKHMSFHAYIRKLTGGADKGKFVALENISCKIKSGCEGHLPWPNGICTKCQPSAITLNRQKYRHVDNIMFENHTVADRFLDFWRKTGNQHFGYLYGRYTEHKDIPLGIRAEVAAIYEPPQIGTQNSLELLEDPKAEVVDEIAAKLGLRKVGWIFTDLVSEDTRKGTVRYSRNKDTYFLSSEECITAGDFQNKHPNMCRLSPDGHFGSKFVTAVATGGPDNQVHFEGYQVSNQCMALVRDECLLPCKDAPELGYAKESSSEQYVPDVFYKDVDKFGNEITQLARPLPVEYLIIDITTTFPKDPVYTFSISQNPFPIENRDVLGETQDFHSLATYLSQNTSSVFLDTISDFHLLLFLVTNEVMPLQDSISLLLEAVRTRNEELAQTWKRSEQWATIEQLCSTVGGQLPGLHEYGAVGGSTHTATAAMWACQHCTFMNQPGTGHCEMCSLPRT [NPLOC4] | 0.478 | -0.273 | 51.8 | 52 | -0.119 | -0.00908
3 | MAETEALSKLREDFRMQNKSVFILGASGETGRVLLKEILEQGLFSKVTLIGRRKLTFDEEAYKNVNQEVVDFEKLDDYASAFQGHDVGFCCLGTTRGKAGAEGFVRVDRDYVLKSAELAKAGGCKHFNLLSSKGADKSSNFLYLQVKGEVEAKVEELKFDRYSVFRPGVLLCDRQESRPGEWLVRKFFGSLPDSWASGHSVPVVTVVRAMLNNVVRPRDKQMELLENKAIHDLGKAHGSLKP [HTATIP2] | 2.61 | 4.75 | 50.8 | 50.2 | -0.095 | 0.148
4 | MAEVGEDSGARALLALRSAPCSPVLCAAAAAAAFPAAAPPPAPAQPQPPPGPPPPPPPPLPPGAIAGAGSSGGSSGVSGDSAVAGAAPALVAAAAASVRQSPGPALARLEGREFEFLMRQPSVTIGRNSSQGSVDLSMGLSSFISRRHLQLSFQEPHFYLRCLGKNGVFVDGAFQRRGAPALQLPKQCTFRFPSTAIKIQFTSLYHKEEAPASPLRPLYPQISPLKIHIPEPDLRSMVSPVPSPTGTISVPNSCPASPRGAGSSSYRFVQNVTSDLQLAAEFAAKAASEQQADTSGGDSPKDESKPPFSYAQLIVQAISSAQDRQLTLSGIYAHITKHYPYYRTADKGWQNSIRHNLSLNRYFIKVPRSQEEPGKGSFWRIDPASEAKLVEQAFRKRRQRGVSCFRTPFGPLSSRSAPASPTHPGLMSPRSGGLQTPECLSREGSPIPHDPEFGSKLASVPEYRYSQSAPGSPVSAQPVIMAVPPRPSSLVAKPVAYMPASIVTSQQPAGHAIHVVQQAPTVTMVRVVTTSANSANGYILTSQGAAGGSHDAAGAAVLDLGSEARGLEEKPTIAFATIPAAGGVIQTVASQMAPGVPGHTVTILQPATPVTLGQHHLPVRAVTQNGKHAVPTNSLAGNAYALTSPLQLLATQASSSAPVVVTRVCEVGPKEPAAAVAATATTTPATATTASASASSTGEPEVKRSRVEEPSGAVTTPAGVIAAAGPQGPGTGE [FOXK1] | 2.52 | 2.09 | 49.1 | 51 | -0.0982 | 0.588
5 | MAEVSIDQSKLPGVKEVCRDFAVLEDHTLAHSLQEQEIEHHLASNVQRNRLVQHDLQVAKQLQEEDLKAQAQLQKRYKDLEQQDCEIAQEIQEKLAIEAERRRIQEKKDEDIARLLQEKELQEEKKRKKHFPEFPATRAYADSYYYEDGGMKPRVMKEAVSTPSRMAHRDQEWYDAEIARKLQEEELLATQVDMRAAQVAQDEEIARLLMAEEKKAYKKAKEREKSSLDKRKQDPEWKPKTAKAANSKSKESDEPHHSKNERPARPPPPIMTDGEDADYTHFTNQQSSTRHFSKSESSHKGFHYKH [CCDC50] | -5.07 | -1.65 | 57.7 | 55 | 0.182 | 0.334
